Experimental data taken from paper PMC4098843 (Nature communications, 2014).

Molecular target: the molecule itself
Experiment: crystal structure

B1: AF2299, a CDP-alcohol phosphotransferase from Archaeoglobus fulgidus (enzyme, Archaeoglobus fulgidus DSM 4304, UniProt O27985 1-344, looked up)
chain: MRLAYVKNHEIYGEKLLGLTLRERIEKTLQRAGFDVRFFDELSLEEAEDYLIILEPVLILERDLLLEGRKILVSDGFTVGYFFGGDFRTVFDGNLQSSIEKYLSLNNLESYEIWAIKLSNDNLKTAEKLLLSSLIKAKRTGLKPAYYDGWIAREINRKVSLRISRLLADTSVTPNQITVFSFFLSLVGSALFLLNSYLTTLLAGVIIQLHSIIDGCDGEIARLKFMESKYGAWLDGVLDRYSDFIIVFSITYVLSASNPVYWIIGFLAAFASLMIAYTGDKFVAAYMRTYSPEGFAIPITRDFRLLIIFACSVVNLPSLALVIIALLGNFEALRRIVALRSYTN
  stoichiometry N: 2
